Test results published in publication PMC2172684.
Read-outs that look alike come from different tables or passages of the source.

Experiments:
Test in all cases: ELISA
importin α [1] = molecular target: importin α (UniProt P52292)
importin α [2] = molecular target: importin α (UniProt P52292); remark: listed apart in the source
GST–RanGTP = GST–RanGTP (UniProt P62826)

Row | Kd (importin α [1]) | Kd (importin α [2]) | Kd (GST–RanGTP) | Substance
1 | 2.1 nM |  |  | importin β m-N/m-C (from UniProt Q14974 1-876) (natural protein)
2 |  | 1.2 nM |  | importin β I178D (from UniProt Q14974 1-876) (natural protein)
3 | 2.2 nM |  |  | importin β L612D/F688A (m-C) (from UniProt Q14974 1-876) (natural protein)
4 | 4.3 nM |  |  | importin β m-C (304–876) (from UniProt Q14974 304-876) (domain or fragment)
5 | 2.5 nM |  |  | importin β (304–876) (from UniProt Q14974 304-876) (domain or fragment)
6 |  | 1.3 nM |  | importin β E214A (from UniProt Q14974 1-876) (natural protein)
7 | 0.9 nM | 0.9 nM |  | wild-type importin β (from UniProt Q14974 1-876) (natural protein)
8 | 1.1 nM | 1.2 nM |  | importin β I178A/F217A/Y255A/I263R (m-N) (from UniProt Q14974 1-876) (natural protein)
9 |  | 1.1 nM |  | importin β I178D/Y255A (from UniProt Q14974 1-876) (natural protein)
10 |  |  | 3.3 nM | wild-type importin β (from UniProt Q14974 1-876) (natural protein; other documents disagree on this pair)
11 |  | 1.1 nM |  | importin β I178A (from UniProt Q14974 1-876) (natural protein)
12 |  | 0.9 nM |  | importin β I263R (from UniProt Q14974 1-876) (natural protein)
